Data published in the supplement of paper PMC5998384.

How the values were obtained:
HeLa Kyoto [1] = test: solubility in G1/S (NP-40 vs SDS abundance) (log2 ratio); higher = more soluble; conditions: cell cycle stage: G1/S
HeLa Kyoto [2] = test: melting temperature (median over replicates), in situ; higher = more thermally stable
HeLa Kyoto [3] = test: solubility change mitosis vs G1/S (difference of NP-40 vs SDS log2 ratios) (log2 ratio difference); higher = more soluble in mitosis
HeLa Kyoto [4] = test: thermal stability score vs G1/S (z-score of summed log2 fold changes over temperatures); higher = more thermally stable than in G1/S
[5] = cell cycle stage: early G1 (4.5 h after nocodazole release)
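Throughout, for melting temperature (median over replicates), in situ: HeLa Kyoto cells synchronized by double thymidine or nocodazole block, proteins quantified by TMT10plex mass spectrometry, three independent biological replicates.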
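Throughout, for solubility change mitosis vs G1/S (difference of NP-40 vs SDS log2 ratios): synchronized HeLa Kyoto cells (double thymidine block for G1/S, nocodazole release for mitosis), protein amounts in NP-40 versus SDS lysates quantified by mass spectrometry, three biological replicates.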
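Throughout, for solubility in G1/S (NP-40 vs SDS abundance): HeLa Kyoto cells arrested at G1/S by double thymidine block, proteins quantified by TMT10plex mass spectrometry in mild NP-40 versus SDS extracts, three biological replicates.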
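Throughout, for thermal stability score vs G1/S (z-score of summed log2 fold changes over temperatures): synchronized HeLa Kyoto cells, proteins quantified by TMT10plex mass spectrometry, three biological replicates, mitosis taken 0.5 h after nocodazole release, G1/S directly after double thymidine block.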

| Sequence | solubility in G1/S (log2) (HeLa Kyoto [1]) | melting temperature (HeLa Kyoto [2]; cell cycle stage: G1/S) [°C] | melting temperature (HeLa Kyoto [2]; cell cycle stage: mitosis) [°C] | solubility change mitosis (log2) (HeLa Kyoto [3]) | thermal stability score (HeLa Kyoto [4]; [5]) | thermal stability score (HeLa Kyoto [4]; cell cycle stage: mitosis) |
| --- | --- | --- | --- | --- | --- | --- |
| MEYMAESTDRSPGHILCCECGVPISPNPANICVACLRSKVDISQGIPKQVSISFCKQCQRYFQPPGTWIQCALESRELLALCLKKIKAPLSKVRLVDAGFVWTEPHSKRLKVKLTIQKEVMNGAILQQVFVVDYVVQSQMCGDCHRVEAKDFWKAVIQVRQKTLHKKTFYYLEQLILKYGMHQNTLRIKEIHDGLDFYYSSKQHAQKMVEFLQCTVPCRYKASQRLISQDIHSNTYNYKSTFSVEIVPICKDNVVCLSPKLAQSLGNMNQICVCIRVTSAIHLIDPNTLQVADIDGSTFWSHPFNSLCHPKQLEEFIVMECSIVQDIKRAAGAGMISKKHTLGEVWVQKTSEMNTDKQYFCRTHLGHLLNPGDLVLGFDLANCNLNDEHVNKMNSDRVPDVVLIKKSYDRTKRQRRRNWKLKELARERENMDTDDERQYQDFLEDLEEDEAIRKNVNIYRDSAIPVESDTDDEGAPRISLAEMLEDLHISQDATGEEGASMLT [NMD3] | -0.119 | 52.2 | 52.2 | -0.0927 | -1.14 | -1.18 |
| MFDTTPHSGRSTPSSSPSLRKRLQLLPPSRPPPEPEPGTMVEKGSDSSSEKGGVPGTPSTQSLGSRNFIRNSKKMQSWYSMLSPTYKQRNEDFRKLFSKLPEAERLIVDYSCALQREILLQGRLYLSENWICFYSNIFRWETTISIQLKEVTCLKKEKTAKLIPNAIQICTESEKHFFTSFGARDRCFLLIFRLWQNALLEKTLSPRELWHLVHQCYGSELGLTSEDEDYVSPLQLNGLGTPKEVGDVIALSDITSSGAADRSQEPSPVGSRRGHVTPNLSRASSDADHGAEEDKEEQVDSQPDASSSQTVTPVAEPPSTEPTQPDGPTTLGPLDLLPSEELLTDTSNSSSSTGEEADLAALLPDLSGRLLINSVFHVGAERLQQMLFSDSPFLQGFLQQCKFTDVTLSPWSGDSKCHQRRVLTYTIPISNPLGPKSASVVETQTLFRRGPQAGGCVVDSEVLTQGIPYQDYFYTAHRYCILGLARNKARLRVSSEIRYRKQPWSLVKSLIEKNSWSGIEDYFHHLERELAKAEKLSLEEGGKDARGLLSGLRRRKRPLSWRAHGDGPQHPDPDPCARAGIHTSGSLSSRFSEPSVDQGPGAGIPSALVLISIVICVSLIILIALNVLLFYRLWSLERTAHTFESWHSLALAKGKFPQTATEWAEILALQKQFHSVEVHKWRQILRASVELLDEMKFSLEKLHQGITVSDPPFDTQPRPDDSFS [GRAMD1A] | -0.0369 | 50.4 | 51.8 | -0.0358 | 0.21 | 0.368 |
| MFEIKKICCIGAGYVGGPTCSVIAHMCPEIRVTVVDVNESRINAWNSPTLPIYEPGLKEVVESCRGKNLFFSTNIDDAIKEADLVFISVNTPTKTYGMGKGRAADLKYIEACARRIVQNSNGYKIVTEKSTVPVRAAESIRRIFDANTKPNLNLQVLSNPEFLAEGTAIKDLKNPDRVLIGGDETPEGQRAVQALCAVYEHWVPREKILTTNTWSSELSKLAANAFLAQRISSINSISALCEATGADVEEVATAIGMDQRIGNKFLKASVGFGGSCFQKDVLNLVYLCEALNLPEVARYWQQVIDMNDYQRRRFASRIIDSLFNTVTDKKIAILGFAFKKDTGDTRESSSIYISKYLMDEGAHLHIYDPKVPREQIVVDLSHPGVSEDDQVSRLVTISKDPYEACDGAHAVVICTEWDMFKELDYERIHKKMLKPAFIFDGRRVLDGLHNELQTIGFQIETIGKKVSSKRIPYAPSGEIPKFSLQDPPNKKPKV [UGDH] | 0.126 | 54 | 54.2 | -0.0998 | 0.636 | 0.376 |
| MFFTCGPNEAMVVSGFCRSPPVMVAGGRVFVLPCIQQIQRISLNTLTLNVKSEKVYTRHGVPISVTGIAQVKIQGQNKEMLAAACQMFLGKTEAEIAHIALETLEGHQRAIMAHMTVEEIYKDRQKFSEQVFKVASSDLVNMGISVVSYTLKDIHDDQDYLHSLGKARTAQVQKDARIGEAEAKRDAGIREAKAKQEKVSAQYLSEIEMAKAQRDYELKKAAYDIEVNTRRAQADLAYQLQVAKTKQQIEEQRVQVQVVERAQQVAVQEQEIARREKELEARVRKPAEAERYKLERLAEAEKSQLIMQAEAEAASVRMRGEAEAFAIGARARAEAEQMAKKAEAFQLYQEAAQLDMLLEKLPQVAEEISGPLTSANKITLVSSGSGTMGAAKVTGEVLDILTRLPESVERLTGVSISQVNHKPLRTA [FLOT1] | -0.837 | 55.3 | 53.7 | 0.121 | -2.16 | 0.224 |
| MFISLWEFFYGHFFRFWMKWLLRQMTGKCELQRIFDTYVGAQRTHRIENSLTYSKNKVLQKATHVVQSEVDKYVDDIMKEKNINPEKDASFKICMKMCLLQITGYKQLYLDVESVRKRPYDSDNLQHEELLMKLWNLLMPTKKLNARISKQWAEIGFQGDDPKTDFRGMGILGLINLVYFSENYTSEAHQILSRSNHPKLGYSYAIVGINLTEMAYSLLKSEALKFHLYNLVPGIPTMEHFHQFYCYLVYEFDKFWFEEEPESIMYFNLYREKFHEKIKGLLLDCNVALTLKV [ELMOD2] | -0.348 | 51.5 | 51.3 | -0.25 | -0.373 | -0.0202 |
| MFKNTFQSGFLSILYSIGSKPLQIWDKKVRNGHIKRITDNDIQSLVLEIEGTNVSTTYITCPADPKKTLGIKLPFLVMIIKNLKKYFTFEVQVLDDKNVRRRFRASNYQSTTRVKPFICTMPMRLDDGWNQIQFNLLDFTRRAYGTNYIETLRVQIHANCRIRRVYFSDRLYSEDELPAEFKLYLPVQNKAKQ [CFAP20] | -0.154 | 50.9 | 51 | -0.00426 | -0.133 | 0.199 |
| MFLLPLPAAGRVVVRRLAVRRFGSRSLSTADMTKGLVLGIYSKEKEDDVPQFTSAGENFDKLLAGKLRETLNISGPPLKAGKTRTFYGLHQDFPSVVLVGLGKKAAGIDEQENWHEGKENIRAAVAAGCRQIQDLELSSVEVDPCGDAQAAAEGAVLGLYEYDDLKQKKKMAVSAKLYGSGDQEAWQKGVLFASGQNLARQLMETPANEMTPTRFAEIIEKNLKSASSKTEVHIRPKSWIEEQAMGSFLSVAKGSDEPPVFLEIHYKGSPNANEPPLVFVGKGITFDSGGISIKASANMDLMRADMGGAATICSAIVSAAKLNLPINIIGLAPLCENMPSGKANKPGDVVRAKNGKTIQVDNTDAEGRLILADALCYAHTFNPKVILNAATLTGAMDVALGSGATGVFTNSSWLWNKLFEASIETGDRVWRMPLFEHYTRQVVDCQLADVNNIGKYRSAGACTAAAFLKEFVTHPKWAHLDIAGVMTNKDEVPYLRKGMTGRPTRTLIEFLLRFSQDNA [LAP3] | 0.187 | 53.8 | 52.6 | -0.0176 | -5.49 | -3.93 |
| MFLYNLTLQRATGISFAIHGNFSGTKQQEIVVSRGKILELLRPDPNTGKVHTLLTVEVFGVIRSLMAFRLTGGTKDYIVVGSDSGRIVILEYQPSKNMFEKIHQETFGKSGCRRIVPGQFLAVDPKGRAVMISAIEKQKLVYILNRDAAARLTISSPLEAHKANTLVYHVVGVDVGFENPMFACLEMDYEEADNDPTGEAAANTQQTLTFYELDLGLNHVVRKYSEPLEEHGNFLITVPGGSDGPSGVLICSENYITYKNFGDQPDIRCPIPRRRNDLDDPERGMIFVCSATHKTKSMFFFLAQTEQGDIFKITLETDEDMVTEIRLKYFDTVPVAAAMCVLKTGFLFVASEFGNHYLYQIAHLGDDDEEPEFSSAMPLEEGDTFFFQPRPLKNLVLVDELDSLSPILFCQIADLANEDTPQLYVACGRGPRSSLRVLRHGLEVSEMAVSELPGNPNAVWTVRRHIEDEFDAYIIVSFVNATLVLSIGETVEEVTDSGFLGTTPTLSCSLLGDDALVQVYPDGIRHIRADKRVNEWKTPGKKTIVKCAVNQRQVVIALTGGELVYFEMDPSGQLNEYTERKEMSADVVCMSLANVPPGEQRSRFLAVGLVDNTVRIISLDPSDCLQPLSMQALPAQPESLCIVEMGGTEKQDELGERGSIGFLYLNIGLQNGVLLRTVLDPVTGDLSDTRTRYLGSRPVKLFRVRMQGQEAVLAMSSRSWLSYSYQSRFHLTPLSYETLEFASGFASEQCPEGIVAISTNTLRILALEKLGAVFNQVAFPLQYTPRKFVIHPESNNLIIIETDHNAYTEATKAQRKQQMAEEMVEAAGEDERELAAEMAAAFLNENLPESIFGAPKAGNGQWASVIRVMNPIQGNTLDLVQLEQNEAAFSVAVCRFSNTGEDWYVLVGVAKDLILNPRSVAGGFVYTYKLVNNGEKLEFLHKTPVEEVPAAIAPFQGRVLIGVGKLLRVYDLGKKKLLRKCENKHIANYISGIQTIGHRVIVSDVQESFIWVRYKRNENQLIIFADDTYPRWVTTASLLDYDTVAGADKFGNICVVRLPPNTNDEVDEDPTGNKALWDRGLLNGASQKAEVIMNYHVGETVLSLQKTTLIPGGSESLVYTTLSGGIGILVPFTSHEDHDFFQHVEMHLRSEHPPLCGRDHLSFRSYYFPVKNVIDGDLCEQFNSMEPNKQKNVSEELDRTPPEVSKKLEDIRTRYAF [SF3B3] | -0.389 | 52.4 | 51.6 | 0.0933 | -1 | -1.81 |
| MFPFGPHSPGGDGSAGAGAEEPTPHEGQAAATGPPSPLHPGADATHPPPPARSPRRPGAPSLSPAPRSGELGLPGAPESSTASAPGEPSPPSPPCRRPGPDCRAKSRGRHGLGAGLGGPGARLFGWLKERSLGRGLFVDPARDNFRTMTSLYGSIHPADSVYLSTRTHGAVFNLEYSPDGSVLTVACEQTEVLLFDPISSKHIKTLSEAHEDCVNNIRFLDNRLFATCSDDTTIALWDLRKLNTKVCTLHGHTSWVKNIEYDTNTRLLVTSGFDGNVIIWDTNRYTEDGCPHKKFFHTRFLMRMRLTPDCSKMLISTSSGYLLILHDLDLTKSLEVGSYPILRARRTTSSSDLTTSSSSSGPRVSGSPCHHSDSNSSEKHMSRASQREGVSPRNSLEVVTPEVLGESDHGNCITSLQLHPKGWATLLRCSSNSDDEECTCVYEFQEGAPVRPVSPRCSLRLTHYIEEANVGRGYIKELCFSPDGRMISSPHGYGIRLLGFDKQCSELVDCLPKEASPLRVIRSLYSHNDVVLTTKFSPTHCQIASGCLSGRVSLYQPKF [DCAF10] | -0.0366 | 53.7 | 51.2 | -0.0652 | -2.74 | -3.62 |
| MFRFMRDVEPEDPMFLMDPFAIHRQHMSRMLSGGFGYSPFLSITDGNMPGTRPASRRMQQAGAVSPFGMLGMSGGFMDMFGMMNDMIGNMEHMTAGGNCQTFSSSTVISYSNTGDGAPKVYQETSEMRSAPGGIRETRRTVRDSDSGLEQMSIGHHIRDRAHILQRSRNHRTGDQEERQDYINLDESEAAAFDDEWRRETSRFRQQRPLEFRRLESSGAGGRRAEGPPRLAIQGPEDSPSRQSRRYDW [MLF2] | 0.236 | 46.2 | – | -0.0421 | 1.43 | 5.61 |
| MFRLNSLSALAELAVGSRWYHGGSQPIQIRRRLMMVAFLGASAVTASTGLLWKRAHAESPPCVDNLKSDIGDKGKNKDEGDVCNHEKKTADLAPHPEEKKKKRSGFRDRKVMEYENRIRAYSTPDKIFRYFATLKVISEPGEAEVFMTPEDFVRSITPNEKQPEHLGLDQYIIKRFDGKKISQEREKFADEGSIFYTLGECGLISFSDYIFLTTVLSTPQRNFEIAFKMFDLNGDGEVDMEEFEQVQSIIRSQTSMGMRHRDRPTTGNTLKSGLCSALTTYFFGADLKGKLTIKNFLEFQRKLQHDVLKLEFERHDPVDGRITERQFGGMLLAYSGVQSKKLTAMQRQLKKHFKEGKGLTFQEVENFFTFLKNINDVDTALSFYHMAGASLDKVTMQQVARTVAKVELSDHVCDVVFALFDCDGNGELSNKEFVSIMKQRLMRGLEKPKDMGFTRLMQAMWKCAQETAWDFALPKQ [MICU1] | -0.299 | 52.2 | 51.3 | -0.00566 | 1.14 | 1.13 |
